T1: FcγRIIa H (human, UniProt P12318 34-217)
T1 construct: extracellular domain; also called FcγRIIa type H; 2aH
T1 sequence (looked up): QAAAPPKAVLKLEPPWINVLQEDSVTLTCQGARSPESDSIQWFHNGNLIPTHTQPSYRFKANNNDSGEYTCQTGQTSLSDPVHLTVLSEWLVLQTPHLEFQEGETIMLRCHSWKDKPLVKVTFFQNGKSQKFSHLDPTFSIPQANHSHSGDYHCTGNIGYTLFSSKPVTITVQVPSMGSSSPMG

T2: FcγRIIb (human, UniProt P31994 43-217)
T2 construct: extracellular domain; also called 2b
T2 sequence (looked up): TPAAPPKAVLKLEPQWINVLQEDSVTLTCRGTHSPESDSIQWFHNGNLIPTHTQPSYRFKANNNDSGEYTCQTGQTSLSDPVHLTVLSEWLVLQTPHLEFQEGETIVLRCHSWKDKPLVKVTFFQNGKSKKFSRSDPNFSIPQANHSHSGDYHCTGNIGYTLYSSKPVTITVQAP

T3: FcγRIIb extracellular domain with C-terminal His tag (human, UniProt P31994 43-217)
T3 construct: extracellular domain; soluble receptor expressed in FreeStyle293 cells, used as analyte in Biacore; also called FcgRIIb; 2b; not shown: His tag attached to the C terminus
T3 sequence (looked up): T2 sequence (looked up)

B1: GpH7-A5/GpH7-B3 variant A327_01G/GpL16-k0 (antibody, human IgG1, kappa)
heavy 1: not shown
heavy 2: not shown
light: DIVMTQSPLSLPVTPGEPASISCQASESLVHSNRNTYLHWYLQKPGQSPQLLIYKVSNRFSGVPDRFSGSGSGTDFTLKISRVEAEDVGVYYCSQNTHVPPTFGQGTKVEIERTVAAPSVFIFPPSDEQLKSGTASVVCLLNNFYPREAKVQWKVDNALQSGNSQESVTEQDSKDSTYSLSSTLTLSKADYEKHKVYACEVTHQGLSSPVTKSFNRGEC
notes: heterodimerized IgG1, mutation in one H chain only; also called He Ab
B2: GpH7-A5/GpH7-B3 variant A327_07I/GpL16-k0 (antibody, human IgG1, kappa)
heavy 1: not shown
heavy 2: not shown
light: B1 light
notes: as for B1
B3: GpH7-A5/GpH7-B3 variant A327_10E/GpL16-k0 (antibody, human IgG1, kappa)
heavy 1: not shown
heavy 2: not shown
light: B1 light
notes: as for B1
B4: GpH7-A5/GpH7-B3 variant A327_18N/GpL16-k0 (antibody, human IgG1, kappa)
heavy 1: not shown
heavy 2: not shown
light: B1 light
notes: as for B1
B5: GpH7-A5/GpH7-B3 variant A330_01G/GpL16-k0 (antibody, human IgG1, kappa)
heavy 1: not shown
heavy 2: not shown
light: B1 light
notes: as for B1
B6: GpH7-A5/GpH7-B3 variant A330_05P/GpL16-k0 (antibody, human IgG1, kappa)
heavy 1: not shown
heavy 2: not shown
light: B1 light
notes: as for B1
B7: GpH7-A5/GpH7-B3 variant K326_15Y/GpL16-k0 (antibody, human IgG1, kappa)
heavy 1: not shown
heavy 2: not shown
light: B1 light
notes: as for B1
B8: GpH7-A5/GpH7-B3 variant K326_16H/GpL16-k0 (antibody, human IgG1, kappa)
heavy 1: not shown
heavy 2: not shown
light: B1 light
notes: as for B1
B9: GpH7-A5/GpH7-B3 variant K326_20W/GpL16-k0 (antibody, human IgG1, kappa)
heavy 1: not shown
heavy 2: not shown
light: B1 light
notes: as for B1
B10: GpH7-A5/GpH7-B3 variant K334_02A/GpL16-k0 (antibody, human IgG1, kappa)
heavy 1: not shown
heavy 2: not shown
light: B1 light
notes: as for B1
B11: GpH7-A5/GpH7-B3 variant K334_05P/GpL16-k0 (antibody, human IgG1, kappa)
heavy 1: not shown
heavy 2: not shown
light: B1 light
notes: as for B1
B12: GpH7-A5/GpH7-B3 variant K334_10E/GpL16-k0 (antibody, human IgG1, kappa)
heavy 1: not shown
heavy 2: not shown
light: B1 light
notes: as for B1
B13: GpH7-A5/GpH7-B3 variant K334_12R/GpL16-k0 (antibody, human IgG1, kappa)
heavy 1: not shown
heavy 2: not shown
light: B1 light
notes: as for B1
B14: GpH7-A5/GpH7-B3 variant K334_18N/GpL16-k0 (antibody, human IgG1, kappa)
heavy 1: not shown
heavy 2: not shown
light: B1 light
notes: as for B1
B15: GpH7-A5/GpH7-B3 variant L328_03V/GpL16-k0 (antibody, human IgG1, kappa)
heavy 1: not shown
heavy 2: not shown
light: B1 light
notes: as for B1
B16: GpH7-A5/GpH7-B3 variant L328_04F/GpL16-k0 (antibody, human IgG1, kappa)
heavy 1: not shown
heavy 2: not shown
light: B1 light
notes: as for B1
B17: GpH7-A5/GpH7-B3 variant L328_07I/GpL16-k0 (antibody, human IgG1, kappa)
heavy 1: not shown
heavy 2: not shown
light: B1 light
notes: as for B1
B18: GpH7-A5/GpH7-B3 variant L328_09D/GpL16-k0 (antibody, human IgG1, kappa)
heavy 1: not shown
heavy 2: not shown
light: B1 light
notes: as for B1
B19: GpH7-A5/GpH7-B3 variant L328_10E/GpL16-k0 (antibody, human IgG1, kappa)
heavy 1: not shown
heavy 2: not shown
light: B1 light
notes: as for B1
B20: GpH7-A5/GpH7-B3 variant L328_15Y/GpL16-k0 (antibody, human IgG1, kappa)
heavy 1: not shown
heavy 2: not shown
light: B1 light
notes: as for B1
B21: GpH7-A5/GpH7-B3 variant L328_19Q/GpL16-k0 (antibody, human IgG1, kappa)
heavy 1: not shown
heavy 2: not shown
light: B1 light
notes: as for B1
B22: GpH7-A5/GpH7-B3 variant N325_01G/GpL16-k0 (antibody, human IgG1, kappa)
heavy 1: not shown
heavy 2: not shown
light: B1 light
notes: as for B1
B23: GpH7-A5/GpH7-B3 variant N325_03V/GpL16-k0 (antibody, human IgG1, kappa)
heavy 1: not shown
heavy 2: not shown
light: B1 light
notes: as for B1
B24: GpH7-A5/GpH7-B3 variant N325_04F/GpL16-k0 (antibody, human IgG1, kappa)
heavy 1: not shown
heavy 2: not shown
light: B1 light
notes: as for B1
B25: GpH7-A5/GpH7-B3 variant N325_06M/GpL16-k0 (antibody, human IgG1, kappa)
heavy 1: not shown
heavy 2: not shown
light: B1 light
notes: as for B1
B26: GpH7-A5/GpH7-B3 variant N325_07I/GpL16-k0 (antibody, human IgG1, kappa)
heavy 1: not shown
heavy 2: not shown
light: B1 light
notes: as for B1
B27: GpH7-A5/GpH7-B3 variant N325_08L/GpL16-k0 (antibody, human IgG1, kappa)
heavy 1: not shown
heavy 2: not shown
light: B1 light
notes: as for B1
B28: GpH7-A5/GpH7-B3 variant N325_09D/GpL16-k0 (antibody, human IgG1, kappa)
heavy 1: not shown
heavy 2: not shown
light: B1 light
notes: as for B1
B29: GpH7-A5/GpH7-B3 variant N325_13S/GpL16-k0 (antibody, human IgG1, kappa)
heavy 1: not shown
heavy 2: not shown
light: B1 light
notes: as for B1
B30: GpH7-A5/GpH7-B3 variant N325_20W/GpL16-k0 (antibody, human IgG1, kappa)
heavy 1: not shown
heavy 2: not shown
light: B1 light
notes: as for B1
B31: GpH7-A5/GpH7-B3 variant P331_03V/GpL16-k0 (antibody, human IgG1, kappa)
heavy 1: not shown
heavy 2: not shown
light: B1 light
notes: as for B1
B32: GpH7-A5/GpH7-B3 variant P331_04F/GpL16-k0 (antibody, human IgG1, kappa)
heavy 1: not shown
heavy 2: not shown
light: B1 light
notes: as for B1
B33: GpH7-A5/GpH7-B3 variant P331_06M/GpL16-k0 (antibody, human IgG1, kappa)
heavy 1: not shown
heavy 2: not shown
light: B1 light
notes: as for B1
B34: GpH7-A5/GpH7-B3 variant S267_11K/GpL16-k0 (antibody, human IgG1, kappa)
heavy 1: not shown
heavy 2: not shown
light: B1 light
notes: as for B1
B35: GpH7-A5/GpH7-B3 variant S267_12R/GpL16-k0 (antibody, human IgG1, kappa)
heavy 1: not shown
heavy 2: not shown
light: B1 light
notes: as for B1
B36: GpH7-A5/GpH7-B3 variant S324_18N/GpL16-k0 (antibody, human IgG1, kappa)
heavy 1: not shown
heavy 2: not shown
light: B1 light
notes: heterodimerized anti-glypican-3 IgG1; alteration in the GpH7-B3 chain only; also called He Ab
B37: GpH7-A5/GpH7-B3 variant S324_19Q/GpL16-k0 (antibody, human IgG1, kappa)
heavy 1: not shown
heavy 2: not shown
light: B1 light
notes: as for B36
B38: GpH7-A5/GpH7-B3 variant S324_20W/GpL16-k0 (antibody, human IgG1, kappa)
heavy 1: not shown
heavy 2: not shown
light: B1 light
notes: as for B36

Each binder was assayed against T1, FcγRIIa H (assay: SPR (Biacore), relative binding vs GpH7-A5/GpH7-B3/GpL16-k0).
Description: (§1) The heterodimerized antibodies He Abs in which one of the H chains was introduced with an alteration were assayed for their binding activities to each activating FcγR and inhibitory FcγR according to the method described in Example 4. […] The activating FcγRs in FIGS. 26, 27, 28, and 29 are FcγRIa, FcγRIIa (R), FcγRIIa (H), and FcγRIIIa, respectively.
(§2) Analysis of interaction between objective antibody and the FcγR was carried out using Biacore T100 (GE Healthcare). HBS-EP+ (GE Healthcare) was used as the running buffer, and the measurement temperature was set to 25° C. Chips produced by immobilizing the antigen peptide by the amine coupling method to a Series S Sencor Chip CM5 (GE Healthcare), or alternatively, chips produced by allowing preliminarily biotinylated antigen peptides to interact with and immobilize onto a Series S Sensor Chip SA (certified) (GE Healthcare) were used. Antibodies of interest were captured onto an antigen peptide-immobilized chip, and allowed to interact to each FcγR diluted with running buffer. To regenerate and repeatedly use the chip, the antibodies captured on the chip were washed off by reacting 10 mM glycine-HCl, pH 1.5.

Binder	He/Con_2aH
B1	97.2 % of control He Ab (=100)
B2	58.4 % of control He Ab (=100)
B3	91.3 % of control He Ab (=100)
B4	66.8 % of control He Ab (=100)
B5	99 % of control He Ab (=100)
B6	85.7 % of control He Ab (=100)
B7	98.3 % of control He Ab (=100)
B8	97.9 % of control He Ab (=100)
B9	83.3 % of control He Ab (=100)
B10	97 % of control He Ab (=100)
B11	97.6 % of control He Ab (=100)
B12	98.2 % of control He Ab (=100)
B13	99.7 % of control He Ab (=100)
B14	99.7 % of control He Ab (=100)
B15	97.8 % of control He Ab (=100)
B16	71.7 % of control He Ab (=100)
B17	93.9 % of control He Ab (=100)

Binder	He/Con_2aH
B18	58.5 % of control He Ab (=100)
B19	55.5 % of control He Ab (=100)
B20	90 % of control He Ab (=100)
B21	86.8 % of control He Ab (=100)
B22	56.8 % of control He Ab (=100)
B23	45.2 % of control He Ab (=100)
B24	33.4 % of control He Ab (=100)
B25	48.2 % of control He Ab (=100)
B26	38.1 % of control He Ab (=100)
B27	52 % of control He Ab (=100)
B28	53.1 % of control He Ab (=100)
B29	79.7 % of control He Ab (=100)
B30	47.2 % of control He Ab (=100)
B31	82.5 % of control He Ab (=100)
B32	84.7 % of control He Ab (=100)
B33	85.1 % of control He Ab (=100)

Each binder was assayed against T2, FcγRIIb in the same assay as above.
Description: as §1, §2

Binder	He/Con_2b
B1	116 % of control He Ab (=100)
B2	127 % of control He Ab (=100)
B3	140 % of control He Ab (=100)
B4	113 % of control He Ab (=100)
B5	104 % of control He Ab (=100)
B6	137 % of control He Ab (=100)
B7	159 % of control He Ab (=100)
B8	119 % of control He Ab (=100)
B9	148 % of control He Ab (=100)
B10	108 % of control He Ab (=100)
B11	105 % of control He Ab (=100)
B12	114 % of control He Ab (=100)
B13	111 % of control He Ab (=100)
B14	115 % of control He Ab (=100)
B15	126 % of control He Ab (=100)
B16	219 % of control He Ab (=100)
B17	160 % of control He Ab (=100)
B18	199 % of control He Ab (=100)

Binder	He/Con_2b
B19	172 % of control He Ab (=100)
B20	193 % of control He Ab (=100)
B21	105 % of control He Ab (=100)
B22	101 % of control He Ab (=100)
B23	111 % of control He Ab (=100)
B24	143 % of control He Ab (=100)
B25	217 % of control He Ab (=100)
B26	171 % of control He Ab (=100)
B27	197 % of control He Ab (=100)
B28	124 % of control He Ab (=100)
B29	177 % of control He Ab (=100)
B30	169 % of control He Ab (=100)
B31	119 % of control He Ab (=100)
B32	110 % of control He Ab (=100)
B33	102 % of control He Ab (=100)
B34	12.2 % of control He Ab (=100)
B35	11.3 % of control He Ab (=100)

What follows are binders tested against T4, FcγRIa extracellular domain with C-terminal His tag (human, UniProt P12314 16-292) (assay: SPR (Biacore), antibody captured on antigen peptide chip, FcγR as analyte; relative binding).
T4 construct: extracellular domain; soluble receptor expressed in FreeStyle293 cells, used as analyte in Biacore; also called FcgRI; 1a; not shown: His tag attached to the C terminus
T4 sequence (P12314 16-292): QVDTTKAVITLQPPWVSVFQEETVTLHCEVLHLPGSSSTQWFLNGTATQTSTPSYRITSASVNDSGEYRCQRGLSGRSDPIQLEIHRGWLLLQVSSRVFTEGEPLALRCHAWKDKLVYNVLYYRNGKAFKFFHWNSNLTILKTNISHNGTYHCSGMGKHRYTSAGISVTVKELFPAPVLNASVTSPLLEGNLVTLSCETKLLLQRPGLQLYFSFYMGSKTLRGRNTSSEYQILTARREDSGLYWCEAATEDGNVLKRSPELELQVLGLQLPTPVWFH

Binder	He/Con_1a
B36	116 % of control GpH7-A5/GpH7-B3/GpL16-k0 (=100)
B37	112 % of control GpH7-A5/GpH7-B3/GpL16-k0 (=100)
B38	114 % of control GpH7-A5/GpH7-B3/GpL16-k0 (=100)

What follows are binders tested against T3, FcγRIIb extracellular domain with … in the same assay as above.

Binder	He/Con_2b
B36	81.1 % of control GpH7-A5/GpH7-B3/GpL16-k0 (=100)
B37	66.8 % of control GpH7-A5/GpH7-B3/GpL16-k0 (=100)
B38	87.5 % of control GpH7-A5/GpH7-B3/GpL16-k0 (=100)
